Consider 21 molecules from article PMC8299219 (Cell, 2021).

B1: G32C5 (antibody, V domains shown)
VH: QVQLVESGGGVVQPGRSLRLSCAASGFTFSSYAMHWVRQAPGKGLEWVAVISYDGSNKYYADSVKGRFTISRDNSKNTLYLQMNSLRAEDTAVYYCARGKSGSYFGSFDYWGQGTLVTVSS
VL: not shown
B2: C81H4 (antibody, V domains shown)
VH: QVQLVESGGGVVQPGRSLRLSCAASGFTFSSYGMHWVRQAPGKGLEWVAVISYDGSNKYYADSVKGRFTISRDNSKNTLCLQMNSLRAEDTAVYYCAKGRGGSYYDAFDIWGQGTMVTVSS
VL: not shown
B3: C12I7 (antibody, V domains shown)
VH: QVQLQESDPGLVQPSETLSLTCTVSRGSISSYYWSWIRQPPGKGLEWIGYIYYSGSTNYNPSLKSRVTISVDTSKNQFSLKLSSVTAADTAVYYCARVGYYDSSAYLKLGSIDYWGQGILVTVSS
VL: not shown
B4: G32M1 (antibody, V domains shown)
VH: QVQLVESGGGVVQPGRSLRLSCVASGFTFSSYGMHWVRQAPGKGLEWVAVIWYDGSNKYYADSVKGRFTISRDNSKNTLYLQMNSLRAEDTAVYYCAREYRSSWYNWFDSWGQGTLVTVSS
VL: SYELTQPPSVSVSPGQTARITCSGDALPKQYAYWYQQKPGQAPVMVIYKDSERPSGIPERFSGSSSGTTVTLTISGVQAEDEADYYCQSADSSGTSYVFGTGTKVTVL
B5: C83B10 (antibody, V domains shown)
VH: QVQLVESGGGVVQPGRSLRLSCAASGFTFSIYAIHWVRQAPGKGLEWVALISYDGSNKYYADSVKGRFTISRDNSKNTLYLQMNSLRAEDTAVYYCARARGGSYSDAFDIWGQGTMVTVSS
VL: not shown
B6: C81E9 (antibody, V domains shown)
VH: QVQLVESGGGVVQPGRSLRLSCAASGFTFSSYAMHWVRQAPGKGLEWVAVISYDGSNKYYADSVKGRFTISRDNSKNTLFLQMNSLRPEDTAVYYCIAARNYYYMDVWGKGTTVTVSS
VL: not shown
B7: G32B2 (antibody, V domains shown)
VH: QLQLQESGPGLVKPSETLSLTCTVSGGSISSSSYYWGWIRQPPGKGLEWIGSIYYSGSTYYNPSLKSRVTISVDTSKNQFSLKLSSVTAADTAVYYCARTVASYYDSSAYLTLGYFDYWGQGTLVTVSS
VL: SYELTQPPSVSVSPGQTARITCSGDALPKKYAYWYQQKSGQAPVLVIYEDSKRPSGIPERFSGSSSGTMATLTISGAQVEDEADYYCYSTDSSGNHNYVFGTGTKVTVL
B8: C7I5 (antibody, V domains shown)
VH: EVQLLESGGGLVQPGGSLRLSCAASGFIFSNYVVSWVRQAPGKGLEWVSGISVNGDTTFYADSVKGRFTISRDNSKNTLYLQMNSLRAEDTAVYYCAKVRGYCSGGRGCMDVWGQGTTVTVSS
VL: DIQLTQSPSSLSPSVGDRVTITCRASQDIGNTLAWYQQKPGKAPNLLIYDASSLQSGVPSRFSGTVSGTDFTLTITSLQPEDFATYFCQQFNTYPALTFGGGTKVEIK
B9: G32M2 (antibody, V domains shown)
VH: QVQLVESGGGVVQPGRSLRLSCAASGFTFSSYAMHWVRQAPGKGLEWVAVISYDGNNKYYADSVKGRFTISRDNSKNTLYLQMNSLRAEDTAMYYCARAKGGGYYYGMDVWGQGTTVTVSS
VL: SYELTQPPSVSVAPGQTARITCGGNNIGSKSVHWYQQKPGQAPVLVVYDDSDRPSGIPERFSGSNSGNTATLTISRVEAGDEADYYCQVWDSSSDPYWVFSGGTKLTVL
B10: C81C3 (antibody, V domains shown)
VH: EVQLVQSGAEVKKPGESLRISCKGSGYSFTSYWISWVRQMPGKGLEWMGRIDPSDSYTNYSPSFQGHVTISADKSISTAYLQWSSLKASDTAMYYCAIHGYYDSSGYYLPHGFDIWGQGTMVTVSS
VL: SYELTQPPSVSVAPGKTARITCGGNNIGSTSVHWYQQKPGQAPVLVVYDDGDRPSGIPERFSGSNSGNTATLTISRVEAGDEADYYCQVWDSSSDPNWVFGGGTKLTVL
B11: C30B10 (antibody, V domains shown)
VH: QVQLVESGGGVVQPGRSLRLSCAASGFTFSSYGMHWVRQAPGKGLEWVAVIWYDGSNKYYADSVKGRFTISRDNSKNTLYLQMNSLRAEDTAVYYCARDYPFSGSYYGDAFDIWGQGTMVTVSS
VL: SYELTQPPSVSVSPGQTARITCSGDALPKKYAYWYQQKSGQAPVLVIYEDSKRPSGIPERFSGSSSGTMATLTISGAQVEDEADYYCYSTDSSGNRWVFGGGTKLTVL
B12: G32B4 (antibody, V domains shown)
VH: not shown
VL: SYELTQPPSVSVSPGQTARITCSGDALPKKYAYWYQQKSGQAPVLVIYEDSKRPSGIPERFSGSSSGTMATLTISGAQVEDEADYYCYSTDSSGNLWVFGGGTKLTVL
B13: C102A5 (antibody, V domains shown)
VH: QVQLVESGGGVVQPGRSLRLSCAASGFTFSTYAMHWVRQAPGKGLEWVAVISYDGSNKYYADSVKGRFTISRDNSKNTLYLQMNSLRAEDTAVYYCARDLGTYRWFDPWGQGTLVTVSS
VL: DIQMTQSPSSVSASVGDRVTITCRASQGISSWLAWYQQKPGKAPKLLIYAASSLQSGVPSRFSGSGSGTDFTLTISSLQSEDFATYYCQQANSFPSFTFGPGTKVEIK
B14: C12B5 (antibody, V domains shown)
VH: QVQLVESGGGVVQPGRSLRLSCAASGFTFSSYGMHWVRQAPGKGLEWVAVIWYDGSNKYYADSVKGRFTISRDNSKNTLYLQMNSLRAEDTAVYYCARDLAVATQNDYWGQGTLVTVSS
VL: SYELTQPPSVSVSPGQTARITCSGDALPKKYAYWYQQKSGQAPVLVIYEDGKRPSGIPERFSGSSSGTMATLTISGAQVEDEADYYCYSTDSSGNRWVFGGGTKLTVL
B15: C81E12 (antibody, V domains shown)
VH: QVQLVESGGGVVQPGRSLRLSCAASGFTFSSYGMHWVRQAPGKGLEWVAVIWYDGSNKYYADSVKGRFTISRDNSKNTLYLQMNSLRAEDTAVYYCARDLRLGDHFDYWGQGTLVTVSS
VL: SYELTQPPSVSVSPGQTARITCSGDALPKKYAYWYQQKSGQAPVLVIYEDSKRPSGIPERFSGSSSGTMATLTISGAQVEDEADYYCYSTDSSGNHRVFGGGTKLTVL
B16: C93E12 (antibody, V domains shown)
VH: QVQLVEAGGGVVQPGTSLRLSCAASGFTFSNYAIQWVRQAPGKGPEWVALISYDGSNKYYADPVKGRFTLSRDNSKNTLYLQMNSLRAEDTAVYYCARGIRGGYNDAFDIWGQGTMVTVSS
VL: DIQLTQSPSFLSASVGDRVTITCRASQGISSYLTWYQQKPGKAPKLLIYAASTLQSGVPSRFSGSGSGTEFTLTISSLQPEDFATYYCQQVTSYPITFGQGTRLEIK
B17: G32L8 (antibody, V domains shown)
VH: EVQLVQSGAEVKKPGESLKISCKGSGYSFTSYWIGWVRQMPGKGLEWMGIIYPGDSDTRYSPSFQGQVTISADKSISTAYLQWSSLKASDTAMYYCARRYAVYSSGWYYWYFDLWGRGTLVTVSS
VL: not shown
B18: C163D5 (antibody, V domains shown)
VH: EVQLVESGGGLVQPGGSLRLSCAASGFTFSSYWMHWVRQAPGKGLVWVSRTNSDGSSTNYADSVKGRFTISRDNAKNTLYLQMNSLRAEDTAVYYCARPQFYVWGSDRADYGMDVWGQGTTVTVSS
VL: QSALTQPASVSGSPGQSITISCTGTSSDVGGYNSVSWYQQHPGKAPKLMIYEVSNRPSGVSNRFSGSKSGNTASLTISGLQAEDEADYYCSSYRSSSTLVFGGGTKLTVL
B19: C882C6 (antibody, V domains shown)
VH: QVQLVESGGGVVQPGRSLRLSCAASGFTFSNFAIHWVRQAPGKGLEWVAVVSYDGGNKYYADSVKGRFTISRDNSKNTLYLQMNSLRAEDTSVYYCARSGSGNYYGWFDPWGQGTLVTVSS
VL: QSALTQPASVSGSPGQSITISCTGTSSDVGSYNLVSWYQQHPGKAPKLMIYEGSKRPSGVSNRFSGSKSGNTASLTISGLQAEDEADYYCCSYAGSSTWVFGGGTKLTVL
B20: C30A8 (antibody, V domains shown)
VH: QVQLVESGGGLVKPGGSLRLSCAASGFTFSDSYMSWIRQAPGKGLEWVSYISSSSSYTNYADSVKGRFTISRDNAKNSLYLQMNSLRAEDTAVYYCARDRVPPYSSGWYYFDYWGQGTLVTVSS
VL: QSALTQPASVSGSPGQSITISCTGTSSDVGGYNYVSWYQQHPGKAPKLMIYEVSNRPSGVSNRFSGSKSDNTASLTISGLQAEDEADYYCSSYTSSSTYVFGTGTKVTVL
B21: mAb 4A8 (published; Chi et al., 2020) (antibody, V domains shown)
VH: QVQLVESGAEVKKPGASVKVSCKVSGYTLTELSMHWVRQAPGKGLEWMGGFDPEDGETMYAQKFQGRVTMTEDTSTDTAYMELSSLRSEDTAVYYCATSTAVAGTPDLFDYYYGMDVWGQGTTVTVSS
VL: EIVMTQSPLSSPVTLGQPASISCRSSQSLVHSDGNTYLSWLQQRPGQPPRLLIYKISNRFSGVPDRFSGSGAGTDFTLKISRVEAEDVGVYYCTQATQFPYTFGQGTKVDIK

One assay addresses T1, SARS-CoV-2 S ectodomain trimer, prefusion-stabilized, 2P variant (Wrapp et al., 2020) (SARS-CoV-2, Wuhan-Hu-1, UniProt P0DTC2, stabilised).
Assay: not given
With B1, the binding result is given as “binds”.
The same measure, in the same setting: in the case of B2 it was “binds”.
The same measure, in the same setting: to B3 belongs “binds”; to B4, “binds”.
Same read-out and setting: to B5 belongs “binds”; to B6, “binds”; to B7, “binds”.
As for B8, the binding result is given as “binds”.
Still for that read-out and setting: in the case of B9 it was “binds”; in that of B10, “binds”; in that of B11, “binds”.
On the same count and under the same terms, to B12 belongs “binds”.
Same read-out and setting: to B13 belongs “binds”.
Regarding B14, the binding result is reported as “binds”.
On to B15, for which the binding result was “binds”.
Same read-out and setting: in the case of B16 it was “binds”.
Still for that read-out and setting: to B17 belongs “binds”; to B18, “binds”.
Still for that read-out and setting: in the case of B19 it was “binds”; in that of B20, “binds”.

A further assay addresses T1, SARS-CoV-2 S ectodomain trimer, …. Put plainly: ELISA.
As for B21, the binding result is “binds”.
